The supplement of paper PMC11246515
± gives the standard deviation of the averaged measurements.

Assay: total protein half-life in vivo (active degradation + dilution); higher = more stable protein
[1] = E. coli NCM3722 delta-clpP delta-lon delta-hslV, growth: N-lim chemostat, doubling time 6 h
[2] = E. coli NCM3722 delta-clpP, growth: N-lim chemostat, doubling time 6 h
[3] = E. coli NCM3722 delta-hslV, growth: N-lim chemostat, doubling time 6 h
[4] = E. coli NCM3722 delta-lon, growth: N-lim chemostat, doubling time 6 h
[5] = E. coli NCM3722 delta-smpB, growth: N-lim chemostat, doubling time 6 h
[6] = wild type E. coli NCM3722, growth: C-lim chemostat, doubling time 3 h
[7] = wild type E. coli NCM3722, growth: C-lim chemostat, doubling time 6 h
[8] = wild type E. coli NCM3722, growth: C-lim chemostat, doubling time 12 h
[9] = wild type E. coli NCM3722, growth: N-lim chemostat, doubling time 6 h
[10] = wild type E. coli NCM3722, growth: N-lim chemostat, doubling time 12 h
[11] = wild type E. coli NCM3722, growth: P-lim chemostat, doubling time 6 h
[12] = wild type E. coli NCM3722, growth: P-lim chemostat, doubling time 12 h

Row | Sequence | total protein half-life in vivo [1] [h] | total protein half-life in vivo [2] [h] | total protein half-life in vivo [3] [h] | total protein half-life in vivo [4] [h] | total protein half-life in vivo [5] [h] | total protein half-life in vivo [6] [h] | total protein half-life in vivo [7] [h] | total protein half-life in vivo [8] [h] | total protein half-life in vivo [9] [h] | total protein half-life in vivo [10] [h] | total protein half-life in vivo [11] [h] | total protein half-life in vivo [12] [h]
1 | MKKILLMLSLLFFTTAGFSEVSDTLVTGGYDKQAMSDAIKHARKETDKFIEVMNKKDADTFAVKAPITDHGRTEHFWLTDVTYSNGMFIGVISNDPGIVTNVEYGQEWKIKKEDISDWMYTRGDKIYGGYTIDPLLVTYPKEEADELRAKLVR | 3.76 | 4.8 | 4.78 ± 1.5 | 5.28 | 4.01 ± 0.41 | 2.2 | 5.15 ± 0.19 | 6.65 | 4.65 | 7.64 | 3.47 ± 0.23 | 5.28 ± 1.1
2 | MKTALLLEKLEGQLATLRQRCAPVSQFATLSARFDRHLFQTRATTLQACLDEAGDNLAALRHAVEQQQLPQVAWLAEHLAAQLEAIAREASAWSLREWDSAPPKIARWQRKRIQHQDFERRLREMVAERRARLARVTDLVEQQTLHREVEAYEARLARCRHALEKIENRLARLTR | 4.68 ± 0.36 | 2.5 ± 0.12 | 2.39 ± 0.15 | 4.09 ± 0.54 | 2.21 ± 0.046 | 1.955 ± 0.0034 | 3.69 ± 0.51 | 6.06 ± 3.5 | 2.58 ± 0.12 | 2.85 ± 0.6 | 2.92 ± 0.094 | 5.17 ± 0.34
3 | MSITLSDSAAARVNTFLANRGKGFGLRLGVRTSGCSGMAYVLEFVDEPTPEDIVFEDKGVKVVVDGKSLQFLDGTQLDFVKEGLNEGFKFTNPNVKDECGCGESFHV [P0AAC8] | 3.72 ± 0.52 | 2.47 ± 1.5 | 0.964 ± 0.11 | 2.06 ± 0.1 | 0.889 ± 0.077 | 1.2 ± 0.086 | 1.62 ± 0.07 | 2.08 ± 0.36 | 1.14 ± 0.11 | 1.26 ± 0.022 | 1.36 ± 0.36 | 2.42 ± 0.75
4 | MHFRAITRIVGLLVILFSGTMIIPGLVALIYRDGAGRAFTQTFFVALAIGSMLWWPNRKEKGELKSREGFLIVVLFWTVLGSVGALPFIFSESPNLTITDAFFESFSGLTTTGATTLVGLDSLPHAILFYRQMLQWFGGMGIIVLAVAILPILGVGGMQLYRAEMPGPLKDNKMRPRIAETAKTLWLIYVLLTVACALALWFAGMDAFDAIGHSFATIAIGGFSTHDASIGYFDSPTINTIIAIFLLISGCNYGLHFSLLSGRSLKVYWRDPEFRMFIGVQFTLVVICTLVLWFHNVYSSALMTINQAFFQVVSMATTAGFTTDSIARWPLFLPVLLLCSAFIGGCAGSTGGGLKVIRILLLFKQGNRELKRLVHPNAVYSIKLGNRALPERILEAVWGFFSAYALVFIVSMLAIIATGVDDFSAFASVVATLNNLGPGLGVVADNFTSMNPVAKWILIANMLFGRLEVFTLLVLFTPTFWRE [P0AFZ7] | 7.11 | 6.5 | 6.15 ± 0.27 | 5.5 ± 1.2 |  | 3.51 ± 0.23 | 6.13 ± 0.096 | 12.8 ± 1.7 | 6.77 ± 0.85 | 12.3 ± 0.14 | 5.4 | 11.4 ± 0.63
5 | MESLTLQPIARVDGTINLPGSKSVSNRALLLAALAHGKTVLTNLLDSDDVRHMLNALTALGVSYTLSADRTRCEIIGNGGPLHAEGALELFLGNAGTAMRPLAAALCLGSNDIVLTGEPRMKERPIGHLVDALRLGGAKITYLEQENYPPLRLQGGFTGGNVDVDGSVSSQFLTALLMTAPLAPEDTVIRIKGDLVSKPYIDITLNLMKTFGVEIENQHYQQFVVKGGQSYQSPGTYLVEGDASSASYFLAAAAIKGGTVKVTGIGRNSMQGDIRFADVLEKMGATICWGDDYISCTRGELNAIDMDMNHIPDAAMTIATAALFAKGTTTLRNIYNWRVKETDRLFAMATELRKVGAEVEEGHDYIRITPPEKLNFAEIATYNDHRMAMCFSLVALSDTPVTILDPKCTAKTFPDYFEQLARISQAA [P0A6D3] | 5.15 ± 0.18 | 5.52 ± 1.1 | 4.53 ± 0.15 | 5.22 ± 0.56 | 4.53 ± 0.049 | 3.1 ± 0.1 | 5.96 ± 0.62 | 11.3 ± 0.63 | 4.45 ± 0.31 | 7.534 ± 0.05 | 5.98 ± 0.078 | 12.1 ± 1.5
6 | MSTLGHQYDNSLVSNAFGFLRLPMNFQPYDSDADWVITGVPFDMATSGRAGGRHGPAAIRQVSTNLAWEHNRFPWNFDMRERLNVVDCGDLVYAFGDAREMSEKLQAHAEKLLAAGKRMLSFGGDHFVTLPLLRAHAKHFGKMALVHFDAHTDTYANGCEFDHGTMFYTAPKEGLIDPNHSVQIGIRTEFDKDNGFTVLDACQVNDRSVDDVIAQVKQIVGDMPVYLTFDIDCLDPAFAPGTGTPVIGGLTSDRAIKLVRGLKDLNIVGMDVVEVAPAYDQSEITALAAATLALEMLYIQAAKKGE | 6.58 ± 1 | 5.85 ± 0.27 | 5.33 ± 0.076 | 7.38 ± 0.48 | 5.82 ± 0.58 | 2.9 ± 0.36 | 6.205 ± 0.019 | 11.8 ± 0.43 | 6.72 ± 0.96 | 11.9 | 6.0955 ± 0.0043 | 12.2 ± 1.3
7 | MNDRDFMRYSRQILLDDIALDGQQKLLDSQVLIIGLGGLGTPAALYLAGAGVGTLVLADDDDVHLSNLQRQILFTTEDIDRPKSQVSQQRLTQLNPDIQLTALQQRLTGEALKDAVARADVVLDCTDNMATRQEINAACVALNTPLITASAVGFGGQLMVLTPPWEQGCYRCLWPDNQEPERNCRTAGVVGPVVGVMGTLQALEAIKLLSGIETPAGELRLFDGKSSQWRSLALRRASGCPVCGGSNADPV | 4.92 ± 0.58 | 3.65 ± 0.013 | 3.8 ± 0.15 | 5.12 ± 0.89 | 2.97 ± 0.83 | 2.37 ± 0.41 | 4.03 ± 0.18 | 8.83 ± 2.4 | 3.24 ± 0.079 | 8.28 ± 6.9 | 4.26 ± 0.46 | 7.08 ± 0.84
8 | MRIHSPYPASWALAQRIGYLYSEGEIIYLADTPFERLLDIQRQVGQCQTMTSLSQADFEARLEAVFHQNTGESQQIAQDIDQSVDLLSLSEEMPANEDLLNEDSAAPVIRLINAILSEAIKETASDIHIETYEKTMSIRFRIDGVLRTILQPNKKLAALLISRIKVMARLDIAEKRIPQDGRISLRIGRRNIDVRVSTLPSIYGERAVLRLLDKNSLQLSLNNLGMTAADKQDLENLIQLPHGIILVTGPTGSGKSTTLYAILSALNTPGRNILTVEDPVEYELEGIGQTQVNTRVDMSFARGLRAILRQDPDVVMVGEIRDTETAQIAVQASLTGHLVLSTLHTNSASGAVTRLRDMGVESFLLSSSLAGIIAQRLVRRLCPQCRQFTPVSPQQAQMFKYHQLAVTTIGTPVGCPHCHQSGYQGRMAIHEMMVVTPELRAAIHENVDEQALERLVRQQHKALIKNGLQKVISGDTSWDEVMRVASATLESEA | 6.61 |  |  |  |  |  |  |  |  |  |  | 
